Patent publication US8642559

What was measured:
[1] = target: myc-mGluR1α (mGluR1α tagged with a c-myc epitope inserted in frame after Ala30) (UniProt P23385)
[2] = target: GST fusion protein with mGluR1α Ile812 to Ser943 attached to the C-terminus of GST (UniProt P23385)
[3] = target: GST fusion protein with mGluR1α Asn889 to Leu1058 fused to the C-terminus of GST (UniProt P23385)
[4] = tested on: spectrin in brain membranes

Sequence of myc-mGluR1α (mGluR1α tagged with a c-myc epitope inserted in frame after Ala30) (P23385 other isoform, or with tags, fused parts or gaps): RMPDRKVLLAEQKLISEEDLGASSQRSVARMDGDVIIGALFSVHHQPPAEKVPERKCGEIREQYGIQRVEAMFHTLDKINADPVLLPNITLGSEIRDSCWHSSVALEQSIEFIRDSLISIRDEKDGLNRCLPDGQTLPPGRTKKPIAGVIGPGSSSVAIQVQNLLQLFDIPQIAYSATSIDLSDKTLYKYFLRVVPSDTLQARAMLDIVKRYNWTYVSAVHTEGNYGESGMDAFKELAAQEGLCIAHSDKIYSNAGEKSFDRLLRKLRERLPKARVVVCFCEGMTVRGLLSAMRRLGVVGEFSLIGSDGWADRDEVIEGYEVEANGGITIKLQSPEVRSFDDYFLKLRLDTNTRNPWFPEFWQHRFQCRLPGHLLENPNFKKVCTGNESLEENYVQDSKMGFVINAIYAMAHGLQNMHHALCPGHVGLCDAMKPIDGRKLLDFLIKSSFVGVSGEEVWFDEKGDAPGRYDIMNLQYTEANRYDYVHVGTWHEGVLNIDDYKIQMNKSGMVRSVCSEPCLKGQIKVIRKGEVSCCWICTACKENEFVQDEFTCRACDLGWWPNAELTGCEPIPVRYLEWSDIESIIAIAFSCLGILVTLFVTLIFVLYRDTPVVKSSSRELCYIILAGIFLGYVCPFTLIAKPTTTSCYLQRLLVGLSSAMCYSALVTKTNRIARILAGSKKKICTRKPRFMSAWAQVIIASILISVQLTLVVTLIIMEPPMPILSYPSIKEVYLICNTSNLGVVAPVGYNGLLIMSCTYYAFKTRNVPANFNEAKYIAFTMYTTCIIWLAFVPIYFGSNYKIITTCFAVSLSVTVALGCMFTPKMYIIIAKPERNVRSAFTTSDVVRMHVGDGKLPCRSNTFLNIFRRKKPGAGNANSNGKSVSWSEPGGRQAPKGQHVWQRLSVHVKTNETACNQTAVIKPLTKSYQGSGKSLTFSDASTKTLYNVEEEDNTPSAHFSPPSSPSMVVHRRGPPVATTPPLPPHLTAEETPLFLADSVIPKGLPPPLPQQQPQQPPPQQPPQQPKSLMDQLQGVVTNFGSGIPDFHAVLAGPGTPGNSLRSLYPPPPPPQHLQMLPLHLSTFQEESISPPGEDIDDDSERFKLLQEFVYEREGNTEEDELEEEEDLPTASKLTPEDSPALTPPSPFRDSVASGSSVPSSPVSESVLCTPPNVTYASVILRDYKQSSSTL
Sequence of GST fusion protein with mGluR1α Ile812 to Ser943 attached to the C-terminus of GST (P23385 812-943): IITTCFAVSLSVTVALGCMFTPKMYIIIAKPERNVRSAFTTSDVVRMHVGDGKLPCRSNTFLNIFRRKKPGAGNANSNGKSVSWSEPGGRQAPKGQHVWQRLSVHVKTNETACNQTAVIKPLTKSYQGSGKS
Sequence of GST fusion protein with mGluR1α Asn889 to Leu1058 fused to the C-terminus of GST (P23385 889-1058): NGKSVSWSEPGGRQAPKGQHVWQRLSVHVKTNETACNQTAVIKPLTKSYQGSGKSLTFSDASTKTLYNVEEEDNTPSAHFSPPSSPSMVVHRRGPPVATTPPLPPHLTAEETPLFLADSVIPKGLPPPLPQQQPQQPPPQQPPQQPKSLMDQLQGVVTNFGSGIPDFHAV

µ-calpain
cleavage of immunoprecipitated myc-mGluR1α by µ-calpain (30 min), silver staining and Western blots [1]: the density of the 145 kD band that represents the whole-length mGluR1α decreased dose-dependently with calpain treatment | digestion of the purified GST fusion protein with calpain in the presence of 2 mM CaCl2 [2]: The GST-mGluR1α fusion protein became about 2 kD smaller after digestion | digestion of the GST fusion protein with calpain, Edman sequencing [3]: after digestion with calpain, this fusion protein generated a 10 kD fragment | truncation in brain membranes treated with purified calpain and calcium [4]: truncation of both mGluR1 and spectrin was observed
